T1: BTN2A2-Fc (recombinant human BTN2A2 Fc-chimera, HEK293-expressed, R&D Systems) (human, UniProt Q8WVV5 33-265)
T1 construct: Bought Fc-chimera; Biotinylated for the yeast display selections; not shown: Fc part of the bought Fc-chimera
T1 sequence (looked up): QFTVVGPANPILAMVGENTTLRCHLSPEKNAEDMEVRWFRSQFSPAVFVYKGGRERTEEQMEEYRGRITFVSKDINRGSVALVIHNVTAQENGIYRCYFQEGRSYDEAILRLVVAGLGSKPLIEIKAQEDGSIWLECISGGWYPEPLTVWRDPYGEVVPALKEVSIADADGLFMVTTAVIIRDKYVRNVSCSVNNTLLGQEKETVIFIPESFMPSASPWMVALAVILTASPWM

B1: BTN3A1-Fc (recombinant human BTN3A1 Fc-chimera, HEK293-expressed, R&D Systems) (Fc fusion, not shown: a dimerising Fc or GST)
chain: not shown

Tests used:
[1] = target: B1; assay: binding affinity, method not stated (Octet named in text)
[2] = target: T2, BTN3A3-Fc (recombinant human BTN3A3 Fc-chimera, HEK293-expressed, R&D Systems) (human, UniProt O00478 30-248); assay: Octet isoform binding screen
T2 construct: Bought Fc-chimera; Biotinylated for the yeast display selections; not shown: Fc part of the bought Fc-chimera

[3] = target: T1, BTN2A2-Fc (recombinant human BTN2A2 …); assay: Octet isoform binding screen
[4] = target: T3, BTN3A2-Fc (recombinant human BTN3A2 Fc-chimera, HEK293-expressed, R&D Systems) (human, UniProt P78410 30-248); assay: Octet isoform binding screen
T3 construct: Bought Fc-chimera; Biotinylated for the yeast display selections; not shown: Fc part of the bought Fc-chimera

[5] = target: T2, BTN3A3-Fc (recombinant human BTN3A3 …); assay: binding affinity, method not stated (Octet named in text)
[6] = target: T3, BTN3A2-Fc (recombinant human BTN3A2 …); assay: as above
[7] = target: anti-BTN3A antibody (clone 20.1, Biolegend, catalog #342702); assay: cell-based or functional assay

T2 sequence (O00478 30-248, change not shown): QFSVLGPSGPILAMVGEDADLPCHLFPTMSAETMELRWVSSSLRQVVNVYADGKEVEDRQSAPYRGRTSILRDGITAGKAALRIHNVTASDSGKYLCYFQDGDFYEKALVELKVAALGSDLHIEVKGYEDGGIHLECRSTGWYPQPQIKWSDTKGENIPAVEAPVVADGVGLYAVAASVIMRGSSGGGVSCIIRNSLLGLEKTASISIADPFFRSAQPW
T3 sequence (P78410 30-248, change not shown): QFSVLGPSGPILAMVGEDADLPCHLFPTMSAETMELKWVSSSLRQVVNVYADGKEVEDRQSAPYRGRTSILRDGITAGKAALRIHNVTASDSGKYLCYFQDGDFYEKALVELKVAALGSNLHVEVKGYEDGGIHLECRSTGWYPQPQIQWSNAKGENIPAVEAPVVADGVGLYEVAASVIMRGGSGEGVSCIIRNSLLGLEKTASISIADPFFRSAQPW

Binder	Kd [1] [nM]	binding result [2]	binding result [3]	binding result [4]	Kd [5] [nM]	Kd [6] [nM]	IC50 (read off the curve): inhibition of 20.1-mediated reactivation of latent HIV (luciferase RLU) [7] [µg/mL]
Antibody 2L (antibody, IgG1, V domains shown, isotype hIgG1-297A (IgG1 N297A); kappa germline VK1-12.7) VH: not shown VL: DIQMTQSPSSVSASVGDRVTITCRASQGISSWLAWYQQKPGKAPKLLIYAASNLQSGVPSRFSGSGSGTDFTLTISSLQPEDFATYYCQQGNDLPITFGGGTKVEIK	3.94	no binding	no binding	no binding			
Antibody 1F (antibody, IgG1, V domains shown, isotype hIgG1-297A (IgG1 N297A); kappa germline VK3-20.0) VH: QVQLQESGPGLVKPSQTLSLTCTVSGGSISSGGYYWSWIRQHPGKGLEWIGSIYYSGSTYYNPSLKSRVTISVDTSKNQFSLKLSSVTAADTAVYYCARLHSSQSSSTYWGQGTLVTVSS VL: not shown	1.53	no binding	no binding	no binding			
Antibody 1G (antibody, IgG1, V domains shown, isotype hIgG1-297A (IgG1 N297A); kappa germline VK3-15.10) VH: QVQLVQSGAEVKKPGASVKVSCKASGYTFTSYGISWVRQAPGQGLEWMGWISAYNGNTNYAQKLQGRVTMTTDTSTSTAYMELRSLRSDDTAVYYCARLGATVAYFDLWGRGTLVTVSS VL: EIVLTQSPATLSVSPGERATLSCRASQSVSSNLAWYQQKPGQAPRLLIYGASTRATGIPARFSGSGSGTEFTLTISSLQSEDFAVYYCQQDVYWPFTFGGGTKVEIK	0.974		no binding		1.13	2.71	
Antibody 3B (antibody, IgG1, V domains shown, isotype hIgG1-297A (IgG1 N297A); kappa germline VK3-11.0) VH: QVQLVQSGAEVKKPGASVKVSCKASGYTFTSYYMHWVRQAPGQGLEWMGIINPSGGSTSYAQKFQGRVTMTRDTSTSTVYMELSSLRSEDTAVYYCARPSGDYSGYDALDVWGQGTMVTVSS VL: EIVLTQSPATLSLSPGERATLSCRASQSVSSYLAWYQQKPGQAPRLLIYDASNRATGIPARFSGSGSGTDFTLTISSLEPEDFAVYYCQQDPYWPITFGGGTKVEIK	2.1		no binding		2.08	4.57	
Antibody 2A (antibody, IgG1, V domains shown, isotype hIgG1-297A (IgG1 N297A); kappa germline VK3-15.1) VH: QVQLVQSGAEVKKPGASVKVSCKASGYTFTSYYIHWVRQAPGQGLEWMGIINPSGGSTSYAQKFQGRVTMTRDTSTSTVYMELSSLRSEDTAVYYCARATWEALHYWGQGTLVTVSS VL: EIVMTQSPATLSVSPGERATLSCRASQSVGSNLAWYQQKPGQAPRLLIYGASTRATGIPARFSGSGSGTEFTLTISSLQSEDFAVYYCQQYYAWPRTFGGGTKVEIK	4.38		no binding	no binding	8.52		
B1							~0.2
Antibody 3A (antibody, IgG1, V domains shown, isotype hIgG1-297A (IgG1 N297A); kappa germline VK1-05.6) VH: QVQLVQSGAEVKKPGASVKVSCKASGYTFTSYYMHWVRQAPGQGLEWMGIINPGGGSTSYAQKFQGRVTMTRDTSTSTVYMELSSLRSEDTAVYYCARDAGHDYGDMAYWGQGTLVTVSS VL: DIQMTQSPSTLSASVGDRVTITCRASQSISSWLAWYQQKPGKAPKLLIYKASSLESGVPSRFSGSGSGTEFTLTISSLQPDDFATYYCQQYRSFPTFGGGTKVEIK	2.76		no binding	no binding	1.4		

Source: patent US20220064291A1 (Merck Sharp & Dohme, published 2022)
